Here are results for one molecule from US20250051474A1, “ANTI-CD97 ANTIBODIES AND ANTIBODY-DRUG CONJUGATES” (New York University, priority 2023, published 2025).

The target in one assay is T1, Q365A (human, UniProt P48960).
T1 construct: transiently expressed on the surface of ExpiCHO cells, gated by anti-V5 tag staining; also called CD97 GAIN mutant Q365A expressed on ExpiCHO cells
T1 sequence (receptor, looked up): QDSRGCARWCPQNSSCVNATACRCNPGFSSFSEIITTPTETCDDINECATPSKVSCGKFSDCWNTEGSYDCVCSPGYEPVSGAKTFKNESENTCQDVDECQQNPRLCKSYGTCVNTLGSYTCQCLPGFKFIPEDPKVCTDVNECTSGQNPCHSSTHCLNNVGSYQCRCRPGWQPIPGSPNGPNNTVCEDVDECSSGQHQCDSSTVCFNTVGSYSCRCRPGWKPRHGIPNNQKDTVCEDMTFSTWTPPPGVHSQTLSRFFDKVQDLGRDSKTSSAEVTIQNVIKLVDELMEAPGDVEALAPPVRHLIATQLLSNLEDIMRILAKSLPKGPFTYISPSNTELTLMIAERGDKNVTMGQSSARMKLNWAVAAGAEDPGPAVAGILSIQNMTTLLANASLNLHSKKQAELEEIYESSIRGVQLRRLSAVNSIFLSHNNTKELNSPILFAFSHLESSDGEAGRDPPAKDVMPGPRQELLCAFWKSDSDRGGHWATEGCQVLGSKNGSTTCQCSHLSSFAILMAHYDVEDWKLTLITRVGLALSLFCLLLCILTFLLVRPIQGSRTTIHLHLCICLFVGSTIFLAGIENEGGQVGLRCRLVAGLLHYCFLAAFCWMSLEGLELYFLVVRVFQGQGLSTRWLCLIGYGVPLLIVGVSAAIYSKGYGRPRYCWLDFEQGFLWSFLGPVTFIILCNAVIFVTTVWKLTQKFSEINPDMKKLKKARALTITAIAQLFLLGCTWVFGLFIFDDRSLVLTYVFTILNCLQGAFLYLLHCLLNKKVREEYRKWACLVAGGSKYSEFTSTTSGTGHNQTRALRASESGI
The assay is described as follows: cell-based binding assay: CD97 GAIN mutant transiently expressed on ExpiCHO cells, A8 Fab titrated, flow cytometry MFI, 1:1 fit; upper panel. For orientation: In flow cytometry, cells or beads pass a laser one at a time.

The target of assay [1] is T2, CD97 (ADGRE5) isoform 1 ectodomain, purified and biotinylated (human, UniProt P48960 21-552, limits assumed, biotinylated in vitro using the BirA enzyme).
T2 construct: the whole entry for isoform 1 is named here; also called CD97 isoform 1; Biotinylated CD97 isoform 1
T2 sequence: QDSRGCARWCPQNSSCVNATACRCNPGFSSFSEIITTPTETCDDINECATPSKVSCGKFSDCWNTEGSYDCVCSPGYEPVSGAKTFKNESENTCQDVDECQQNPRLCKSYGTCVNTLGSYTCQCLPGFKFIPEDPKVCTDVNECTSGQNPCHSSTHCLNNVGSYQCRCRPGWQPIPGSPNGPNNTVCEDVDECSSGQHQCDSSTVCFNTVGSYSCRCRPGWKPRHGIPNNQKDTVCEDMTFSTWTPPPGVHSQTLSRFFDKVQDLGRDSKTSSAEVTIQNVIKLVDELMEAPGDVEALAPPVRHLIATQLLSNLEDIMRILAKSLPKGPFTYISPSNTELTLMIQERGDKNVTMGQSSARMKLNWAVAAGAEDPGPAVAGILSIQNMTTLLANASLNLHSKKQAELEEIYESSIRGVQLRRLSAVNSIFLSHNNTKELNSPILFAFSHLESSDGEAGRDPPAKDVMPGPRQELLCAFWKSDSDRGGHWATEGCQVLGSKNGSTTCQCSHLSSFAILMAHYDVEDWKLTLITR
The assay is described as follows: bead-based binding titration (biotinylated antigen on streptavidin beads, flow cytometry), 1:1 fit.

Assay [2] addresses T3, CD97 (ADGRE5) isoform 2 ectodomain, purified and biotinylated (human, UniProt P48960 21-552, biotinylated in vitro using the BirA enzyme).
T3 construct: the whole entry for isoform 2 is named here; also called CD97 isoform 2
T3 sequence: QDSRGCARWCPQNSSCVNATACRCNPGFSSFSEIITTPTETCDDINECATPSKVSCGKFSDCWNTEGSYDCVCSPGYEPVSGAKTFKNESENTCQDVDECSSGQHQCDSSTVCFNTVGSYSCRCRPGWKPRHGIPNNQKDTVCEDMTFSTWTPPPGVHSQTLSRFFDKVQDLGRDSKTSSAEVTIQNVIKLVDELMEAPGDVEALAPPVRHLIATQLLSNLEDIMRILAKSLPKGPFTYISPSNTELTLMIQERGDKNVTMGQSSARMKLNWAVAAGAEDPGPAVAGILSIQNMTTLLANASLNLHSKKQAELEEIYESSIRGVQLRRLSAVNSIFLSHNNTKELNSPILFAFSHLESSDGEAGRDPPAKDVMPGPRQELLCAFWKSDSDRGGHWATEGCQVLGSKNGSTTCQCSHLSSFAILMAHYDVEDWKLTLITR
The description is as above.

Assay [3] deals with T4, CD97 GAIN mutant T351K expressed on ExpiCHO cells (human, UniProt P48960 21-835).
T4 construct: numbering of isoform 1; whole entry named
T4 sequence: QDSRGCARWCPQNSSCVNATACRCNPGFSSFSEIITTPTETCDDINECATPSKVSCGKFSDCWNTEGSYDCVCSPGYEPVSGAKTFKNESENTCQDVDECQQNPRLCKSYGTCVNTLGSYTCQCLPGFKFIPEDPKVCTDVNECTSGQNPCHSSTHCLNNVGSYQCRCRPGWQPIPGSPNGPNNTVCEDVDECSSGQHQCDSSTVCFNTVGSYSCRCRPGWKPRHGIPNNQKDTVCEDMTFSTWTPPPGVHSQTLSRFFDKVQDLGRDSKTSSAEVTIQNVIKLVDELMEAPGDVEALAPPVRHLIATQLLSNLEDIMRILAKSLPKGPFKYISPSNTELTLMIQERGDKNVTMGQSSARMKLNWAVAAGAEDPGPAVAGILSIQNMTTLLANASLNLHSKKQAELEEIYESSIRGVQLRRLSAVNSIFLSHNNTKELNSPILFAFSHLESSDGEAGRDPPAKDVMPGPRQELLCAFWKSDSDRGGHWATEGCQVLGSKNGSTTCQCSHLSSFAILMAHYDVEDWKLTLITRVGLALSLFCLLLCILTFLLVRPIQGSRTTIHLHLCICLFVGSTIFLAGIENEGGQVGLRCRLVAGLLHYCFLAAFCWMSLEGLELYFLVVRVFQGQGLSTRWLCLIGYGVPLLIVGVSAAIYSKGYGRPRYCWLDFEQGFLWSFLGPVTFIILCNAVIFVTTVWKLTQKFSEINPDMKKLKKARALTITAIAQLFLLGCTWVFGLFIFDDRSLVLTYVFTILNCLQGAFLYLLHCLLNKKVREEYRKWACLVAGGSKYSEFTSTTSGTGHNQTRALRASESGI
The assay is described as follows: cell-based binding assay: CD97 GAIN mutant T351K transiently expressed on ExpiCHO cells, A8 Fab titrated, flow cytometry MFI; lower panel.
Procedure: (§1) KD values were determined from the curve fitting of a 1:1 binding model.

Procedure for Q365A: as §1

B1: Antibody clone A8, Fab format (Fab, V domains shown)
VH: EVQLVESGGGLVQPGGSLRLSCAASGFTISSYSIHWVRQAPGKGLEWVASISPYYGSTSYADSVKGRFTISADTSKNTAYLQMNSLRAEDTAVYYCARSWYYYEQNPYWYQKEEQALDYWGQGTLVTVSS
VL: DIQMTQSPSSLSASVGDRVTITCRASQSVSSAVAWYQQKPGKAPKLLIYSASSLYSGVPSRFSGSRSGTDFTLTISSLQPEDFATYYCQQSVYSPVTFGQGTKVEIKR
notes: Fab; also called wild type A8
B1: the Kd was found to be 56 nM with Q365A, 2.4 nM in assay [1] and 2.2 nM in assay [2]. The binding result in assay [3] is “no binding (tested: 1000 nM)”.

By Kd is commonly meant the concentration at which binding is half-saturated.
